Assay results from the nanobody polyreactivity screen of Harvey et al. (2022).

Assay: yeast display, Sf9 membrane polyspecificity reagent, FACS + sequencing; frameworks hold sequencing errors
Summary of the method: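 Polyreactivity labels are assigned by the sorting gate from which each nanobody was recovered. The gates were low and high (top ~1%), set on anti-HA fluorescence for expression and streptavidin fluorescence for reagent binding. Before sorting, galactose-induced (36–48 hours) yeast display cells were stained for 1 hour at 4 °C with 10% biotinylated, detergent-solubilized Sf9 membrane reagent.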

Row | Sequence | polyreactivity (PSR sort gate)
1 | QVQLVESGGGLVQAGGSLRLSCAASGRIFKDNAMGWYRQAPGKERELVATIDSGGDTNYADSVKGRFTISRDNAKNTVYLQMNSLKPEDTAVYYCNTEGFLSAVYAFGYWGQGTQVTVSS | low polyreactivity
2 | QVQLVESGGGLVQAGGSLRLSCAASGSIFFWYTMGWYRQAPGKERELVATISWSDGTTYYADSVKGRFTISRDKAKNTVYLQMNSLIPEDTAVYYCAAESYPSEVSSYVSEYDYWGQGTQVTVSS | low polyreactivity
3 | QVQLVESGGGLVQAGGSLRLSCAASGFTFWRYGMGWYRQAPGKERELVASITSGGGTNYADSVKGRFTISRDNAKNTVYFQMNSLKPEDTAVYYCAATYPYSWVYSGYYYWGQGTQVTVSS | low polyreactivity
4 | QVQLVESGGGLVQAGGSLRLSCAASGSIFRYYVMGWYRQAPGKERELVAAISWSGGTTYYADSVKGRFTISRDNAKNTVYLQMNSLKPEDTAVYYCAAKGPLGYYHATDYHDYWGQGTQVTVSS | high polyreactivity
5 | QVQHVESGGGLVQAGGSLRLSSAASGRIFSWNAMVWYRQAPGKERELVAAITNGGGTYYADSVKGRFTISRDNAKNTVYLQMNSLKPEDTAVYYCNAYRRKLWYPTGMYWGQGTQVTVSS | high polyreactivity
6 | LVQLVESGGGLVQAGGSLRLSCAASGYIIGFYVMGWYRQAPGKERELVAVIDYGSDNTYYADSVLGRYTISRDNAKNTVYLQMNSLKPEETAVYYCAAEWYKSNYYDYDTWGQGTQVTVSS | high polyreactivity
7 | QVQLVESGGGLVQAGGSLRLSCAPSGSTFSGYAMGWYRQAPGKEREFVATISISGCSTYYADSVKGRFTISRDNAKNTVYLQMNSLKPEDTAVYYCAKDSGSYRVGIYEPFPYGYWGQGTQVTVSS | low polyreactivity
8 | QVQLVESGGGLVQAGGSLRLSCAASRRIFDVNSMGWYRQAPGKERELVAAISSGGNTKYADSVKGRFTISRDNAKNSVYLQMNSLKPEDTAVYYCIADGKAAGDYDYWGQGTQVTVSS | low polyreactivity
9 | QGQLVESGGGLVQAGGSLRLSCADSGNTFNPNAMGWYRQAPGKERELVAVIRFRGVSKYYADSVKGRFTISRDNAKNSVYLQMNSLKPEDTAVYYCAADFLYYYLRYYFWGQGTQVTVSS | high polyreactivity
10 | QVQLVESGGGLVQAVGSLRLSCAASGITFRWYTMGWYRQAPGKERELVASIRYGGGSTYYADSVKGRFTISRDNAKNTVYLQMNSLKPEDTAVYYCDAESAWTSPYDYWGQGTQVTVSS | high polyreactivity
11 | QVQLVESGGGLVQAGGSLRLSCAASGSTFRYNAMGWYRQAPGKERELVAAITSGGRTTYADSVKGRFTISRDNAKNPVYLQMNSLKPEDTAVYYCAARRYGRNWHYDYWGHGTQVTVSS | high polyreactivity
12 | QVQLVESGGGLVQAGGSLRLICAASGRTYDKYVMGWYRQAPGKERELVSAISFRGVRTYYADSVKGRFTISRDNAKNTFYLQKNSLKPEDTGVYYCAARFTFSAIIGPYGYWGQGTQVTVSS | high polyreactivity
13 | QVQLVDSGGGLVQAGGSLRLSCAASGRTFPFYAKGLSRQATGKERELVAVITWRGSNTFADSVKGRFTISRDNAKNTVFLQMNSLKPEDTAVYYCAADAWRSYGYRAYDYWGQGTQVTVSS | high polyreactivity
14 | QVQLVESGGGLVQAGGSLRLSCAASGSISWWYAMGWYRQAPGKERELVAAISSRGGSTYYADSVKGRFTISRDNAKNTVYLQMNSLKPEDTAVYYCAKYYYVGTSFYQGDYWGQGTQVTVSS | low polyreactivity
15 | QVQLVESGGGLVQAGGSLRLSCAASGRIFYLYAMGWYRQAPGKERELVAAITWSGGSTTYADSVKGRFTISRDNAKNTFYLQMNSLKPEDTAVYYCNADGWSFPSFSPMDYWGQGTQVTVSS | low polyreactivity
16 | QVQLVESGGGLVQAGGSLRLSCADSGSTIPKYAMGWSRQAPGKERELVAVITSGGSTYYADSVKGRFTISRDNAKNTVYLQMISLKPEDTAVYYCAARKYRRFDYWGQGTQVTVSS | high polyreactivity
17 | QVQLVESGGGLVQAGGSLRLSCAASGSTFYAYGMGWYRQAPGKERELVATITWSGGSTYYADSVKGRFTISRDNAKNTVYLQMNSLKPEDTAVYYCAARSPFPTIADGDYWGQGTQVTVSS | low polyreactivity
